Data as given in patent US20240116985A1 (published 2024).
Starred links: 1 amine or outer side, 2 acyl side, 3 side chain; linkers in the order of their positions; H or OH if unused. Positions of bridges follow the written chain, without caps; N, C: chain ends. Non-standard residues stand in square brackets, D forms with d. Primed or numbered codes have the meaning given here. B5(16) = 2-amino-2-(pent-4-en-1-yl)hept-6-enoic acid = 2,2-bis(4-pentenyl)glycine (stitching residue), C=CCCCC(CCCC=C)(N[*:1])C(=O)[*:2]; B5(4) = 2,2-bis(4-pentenyl)glycine = 2-amino-2-(pent-4-en-1-yl)hept-6-enoic acid (stitching residue), C=CCCCC(CCCC=C)(N[*:1])C(=O)[*:2]; B5(5) = 2,2-bis(4-pentenyl)glycine, 2-amino-2-(pent-4-en-1-yl)hept-6-enoic acid (stitching residue), C=CCCCC(CCCC=C)(N[*:1])C(=O)[*:2]; PyrS(3) = (S)-1-((allyloxy)carbonyl)-3-aminopyrrolidine-3-carboxylic acid, stapling residue, C=CCOC(=O)N1CC[C@@](N[*:1])(C(=O)[*:2])C1; PyrS″ = (S)-1-((allyloxy)carbonyl)-3-aminopyrrolidine-3-carboxylic acid (stapling residue), C=CCOC(=O)N1CC[C@@](N[*:1])(C(=O)[*:2])C1; B5(21) = 2-amino-2-(pent-4-en-1-yl)hept-6-enoic acid, bis(4-pentenyl)glycine (stitching residue), C=CCCCC(CCCC=C)(N[*:1])C(=O)[*:2]; RdN = (R)-4-(((allyloxy)carbonyl)(methyl)amino)-2-amino-2-methylbutanoic acid, C=CCOC(=O)N(C)CC[C@@](C)(N[*:1])C(=O)[*:2]; PyrS = (S)-1-((allyloxy)carbonyl)-3-aminopyrrolidine-3-carboxylic acid, C=CCOC(=O)N1CC[C@@](N[*:1])(C(=O)[*:2])C1; 6F1NapA = 2-amino-3-(6-fluoronaphthalen-1-yl)propanoic acid, O=C([C@H](Cc1cccc2cc(F)ccc12)N[*:1])[*:2]; B5 = 2-amino-2-(pent-4-en-1-yl)hept-6-enoic acid, C=CCCCC(CCCC=C)(N[*:1])C(=O)[*:2]; H2Trp = 2,3-dihydrotryptophan (indolin-3-yl alanine); Trp(5-OMe) = COc1ccc2[nH]cc(C[C@H](N)C(=O)O)c2c1; Phe(3-CF3) = N[C@@H](Cc1cccc(C(F)(F)F)c1)C(=O)O; Phe(4-CF3) = N[C@@H](Cc1ccc(C(F)(F)F)cc1)C(=O)O; Trp(5-F) = N[C@@H](Cc1c[nH]c2ccc(F)cc12)C(=O)O; S7 = C[C@@](CCCCCC=[*:3])(N[*:1])C(=O)[*:2]; Bip = N[C@@H](Cc1ccc(-c2ccccc2)cc1)C(=O)O; αAllylPro = C=CC[C@@]1(C(=O)O)CCCN1; R8 = C=CCCCCCC[C@@](C)(N)C(=O)O; S8 = C=CCCCCCC[C@](C)(N)C(=O)O; Nle = CCCC[C@H](N)C(=O)O; Aib = CC(C)(N)C(=O)O

T1: full-length beta-Catenin (Uniprot ID P35222) (Homo sapiens (Human), UniProt P35222 2-781)
T1 construct: The AlphaScreen assay used a Histidine (Nickel Chelate) detection kit, so a His tag is likely, but no tag is described; also called B-Catenin; bCat
T1 sequence: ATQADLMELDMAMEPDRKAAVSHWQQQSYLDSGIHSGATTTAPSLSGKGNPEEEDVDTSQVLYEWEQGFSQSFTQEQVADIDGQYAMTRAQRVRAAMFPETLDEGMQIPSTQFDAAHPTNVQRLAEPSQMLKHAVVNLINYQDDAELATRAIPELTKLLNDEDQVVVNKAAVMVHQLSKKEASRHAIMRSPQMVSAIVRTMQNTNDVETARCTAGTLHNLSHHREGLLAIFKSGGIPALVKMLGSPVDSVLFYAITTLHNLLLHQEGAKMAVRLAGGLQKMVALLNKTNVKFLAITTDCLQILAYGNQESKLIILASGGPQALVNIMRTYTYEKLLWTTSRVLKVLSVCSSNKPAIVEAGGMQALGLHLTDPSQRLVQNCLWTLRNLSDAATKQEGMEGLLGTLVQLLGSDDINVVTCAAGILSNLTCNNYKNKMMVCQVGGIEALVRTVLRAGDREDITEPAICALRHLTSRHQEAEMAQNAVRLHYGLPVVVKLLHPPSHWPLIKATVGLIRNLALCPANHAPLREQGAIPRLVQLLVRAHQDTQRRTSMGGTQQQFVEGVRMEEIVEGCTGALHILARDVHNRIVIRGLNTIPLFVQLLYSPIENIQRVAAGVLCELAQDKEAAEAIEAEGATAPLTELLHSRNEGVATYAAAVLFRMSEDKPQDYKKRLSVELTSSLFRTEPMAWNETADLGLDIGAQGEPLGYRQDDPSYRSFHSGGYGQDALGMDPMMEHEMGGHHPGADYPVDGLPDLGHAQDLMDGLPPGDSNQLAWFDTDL

T2: full-length beta-Catenin (Uniprot ID P35222) (Homo sapiens (Human), UniProt P35222 2-781)
T2 construct: the AlphaScreen assay uses a Histidine (Nickel Chelate) detection kit, so a His tag is likely there; also called B-Catenin; bCat
T2 sequence: T1 sequence

B1: I-243 (peptide)
peptide: Ac-[αAllylPro]DA[B5(5)]DDAA[Phe(4-CF3)]V[S8]FWQ-NH2
modifications: staple 1-4, 4-11; not fully specified; printed as Ac-PL3-Asp-Ala-B5-Asp-Asp-Ala-Ala-4F3MeF-Val-S8-Phe-Trp-Gln-NH2
notes: Stapled peptide composition; also called Ac-PL3-Asp-Ala-B5-Asp-Asp-Ala-Ala-4F3MeF-Val-S8-Phe-Trp-Gln-NH2
B2: I-248 (peptide)
peptide: Ac-[αAllylPro]DA[B5(4)]DDAAFV[S8][Phe(3-CF3)]WQ-NH2
modifications: staple 1-4, 4-11
notes: Stapled peptide composition; also called Ac-PL3-Asp-Ala-B5-Asp-Asp-Ala-Ala-Phe-Val-S8-3F3MeF-Trp-Gln-NH2
B3: I-253 (peptide)
peptide: Ac-[αAllylPro]DA[B5(4)]DDAAFV[S8][Phe(4-CF3)]WQ-NH2
modifications: staple 1-4, 4-11
notes: Stapled peptide composition; also called Ac-PL3-Asp-Ala-B5-Asp-Asp-Ala-Ala-Phe-Val-S8-4F3MeF-Trp-Gln-NH2
B4: I-240 (peptide)
peptide: Ac-[αAllylPro]DA[B5(5)]DDAA[Phe(4-CF3)]V[S8]FWQ-NH2
modifications: staple 1-4, 4-11; not fully specified; printed as Ac-PL3-Asp-Ala-B5-Asp-Asp-Ala-Ala-4F3MeF-Val-S8-Phe-Trp-Gln-NH2
notes: as for B1
B5: I-252 (peptide)
peptide: Ac-[αAllylPro]DA[B5(4)]DDAAFV[S8][Phe(4-CF3)]WQ-NH2
modifications: staple 1-4, 4-11
notes: as for B3
B6: I-241 (peptide)
peptide: Ac-[αAllylPro]DA[B5(5)]DDAA[Phe(4-CF3)]V[S8]FWQ-NH2
modifications: staple 1-4, 4-11; not fully specified; printed as Ac-PL3-Asp-Ala-B5-Asp-Asp-Ala-Ala-4F3MeF-Val-S8-Phe-Trp-Gln-NH2
notes: as for B1
B7: I-249 (peptide)
peptide: Ac-[αAllylPro]DA[B5(4)]DDAAFV[S8][Phe(3-CF3)]WQ-NH2
modifications: staple 1-4, 4-11
notes: as for B2
B8: I-242 (peptide)
peptide: Ac-[αAllylPro]DA[B5(5)]DDAA[Phe(4-CF3)]V[S8]FWQ-NH2
modifications: staple 1-4, 4-11; not fully specified; printed as Ac-PL3-Asp-Ala-B5-Asp-Asp-Ala-Ala-4F3MeF-Val-S8-Phe-Trp-Gln-NH2
notes: as for B1
B9: I-159 (peptide)
peptide: Ac-[Aib]DA[R8]DEAAFV[PyrS″]FW[Aib]-NH2
modifications: staple 4-11; not fully specified; printed as Ac-Aib-Asp-Ala-R8-Asp-Glu-Ala-Ala-Phe-Val-PyrS-Phe-Trp-Aib-NH2
notes: stapled peptide
B10: I-160 (peptide)
peptide: Ac-[Aib]DA[R8]DEAAFV[PyrS]FW[Aib]-NH2
modifications: staple 4-11; not fully specified; printed as Ac-Aib-Asp-Ala-R8-Asp-Glu-Ala-Ala-Phe-Val-PyrS-Phe-Trp-Aib-NH2
notes: stapled peptide
B11: I-139 (peptide)
peptide: Ac-[αAllylPro]DA[B5(21)]D[Nle]AAFV[S8]FWQ-NH2
modifications: staple 1-4, 4-11; not fully specified; printed as Ac-PL3-Asp-Ala-B5-Asp-nLeu-Ala-Ala-Phe-Val-S8-Phe-Trp-Gln-NH2
notes: stapled peptide
B12: I-158 (peptide)
peptide: Ac-[Aib]DA[R8]DEAAFV[PyrS(3)]FWQ-NH2
modifications: staple 4-11; also: later-eluting staple isomer
notes: stapled peptide
B13: I-164 (peptide)
peptide: Ac-FDA[R8]DDAAFS[PyrS]FWQ-NH2
modifications: staple 4-11
notes: stapled peptide
B14: I-145 (peptide)
peptide: Ac-[αAllylPro]DA[B5]DEAAFV[S8]F[Bip]Q-NH2
modifications: staple 1-4, 4-11
notes: stapled peptide composition
B15: I-167 (peptide)
peptide: Ac-[αAllylPro]DA[B5(16)]DEAAFV[S8]F[H2Trp]Q-NH2
modifications: staple 1-4, 4-11
notes: stapled peptide
B16: I-146 (peptide)
peptide: Ac-[αAllylPro]DA[B5(4)]DEAAFV[S8]F[Trp(5-F)]Q-NH2
modifications: staple 1-4, 4-11
notes: stapled peptide composition
B17: I-151 (peptide)
peptide: Ac-DI[RdN]DDAAFQ[S7]FW-NH2
modifications: staple 3-10
notes: stapled peptide composition
B18: I-161 (peptide)
peptide: Ac-FDA[R8]DDAAFV[PyrS]EWQ-NH2
modifications: staple 4-11; not fully specified; printed as Ac-Phe-Asp-Ala-R8-Asp-Asp-Ala-Ala-Phe-Val-PyrS-Glu-Trp-Gln-NH2
notes: stapled peptide
B19: I-136 (peptide)
peptide: XDAXDEAAFVXFXQ
modifications: not fully specified; as printed: Ac-PL3-Asp-Ala-B5-Asp-Glu-Ala-Ala-Phe-Val-S8-Phe-aMeW-Gln-NH2; N-terminal acetyl, C-terminal amide; PL3(1), B5(4), S8(11), aMeW(13); staples PL3-B5 and B5-S8 by olefin metathesis
notes: stapled peptide
B20: I-168 (peptide)
peptide: Ac-[αAllylPro]DA[B5(16)]DEAAFV[S8]F[H2Trp]Q-NH2
modifications: staple 1-4, 4-11
notes: stapled peptide
B21: I-165 (peptide)
peptide: Ac-[αAllylPro]DA[B5(16)]DEAAFV[S8]F[Trp(5-OMe)]Q-NH2
modifications: staple 1-4, 4-11
notes: stapled peptide composition
B22: I-162 (peptide)
peptide: Ac-FDA[R8]DDAAFV[PyrS″]EWQ-NH2
modifications: staple 4-11; not fully specified; printed as Ac-Phe-Asp-Ala-R8-Asp-Asp-Ala-Ala-Phe-Val-PyrS-Glu-Trp-Gln-NH2
notes: stapled peptide
B23: I-137 (peptide)
peptide: XDAXDEAAFVXFXQ
modifications: not fully specified; as printed: Ac-PL3-Asp-Ala-B5-Asp-Glu-Ala-Ala-Phe-Val-S8-Phe-aMeW-Gln-NH2; N-terminal acetyl, C-terminal amide; PL3(1), B5(4), S8(11), aMeW(13); staples PL3-B5 and B5-S8 by olefin metathesis
notes: stapled peptide
B24: I-138 (peptide)
peptide: Ac-[αAllylPro]DA[B5(4)]D[Nle]AAFV[S8]FWQ-NH2
modifications: staple 1-4, 4-11; not fully specified; printed as Ac-PL3-Asp-Ala-B5-Asp-nLeu-Ala-Ala-Phe-Val-S8-Phe-Trp-Gln-NH2
notes: stapled peptide
B25: I-149 (peptide)
peptide: DIXDDAAFQXFWH
modifications: not fully specified; as printed: Ac-Asp-Ile-RdN-Asp-Asp-Ala-Ala-Phe-Gln-S7-Phe-Trp-His-NH2; N-terminal acetyl, C-terminal amide; RdN(3), S7(10); staple RdN-S7 by olefin metathesis
notes: stapled peptide
B26: I-150 (peptide)
peptide: DIXDDAAFQXFWH
modifications: not fully specified; as printed: Ac-Asp-Ile-RdN-Asp-Asp-Ala-Ala-Phe-Gln-S7-Phe-Trp-His-NH2; N-terminal acetyl, C-terminal amide; RdN(3), S7(10); staple RdN-S7 by olefin metathesis
notes: stapled peptide
B27: I-156 (peptide)
peptide: Ac-ADA[RdN]DEAAFQ[S7]FWH-NH2
modifications: staple 4-11
notes: stapled peptide composition
B28: I-142 (peptide)
peptide: Ac-[αAllylPro]DA[B5(4)]DEAAFV[S8]F[6F1NapA]Q-NH2
modifications: staple 1-4, 4-11
notes: stapled peptide composition
B29: I-163 (peptide)
peptide: Ac-FDA[R8]DDAAFS[PyrS″]FWQ-NH2
modifications: staple 4-11; not fully specified; printed as Ac-Phe-Asp-Ala-R8-Asp-Asp-Ala-Ala-Phe-Ser-PyrS-Phe-Trp-Gln-NH2
notes: stapled peptide
B30: I-157 (peptide)
peptide: Ac-[Aib]DA[R8]DEAAFV[PyrS]FWQ-NH2
modifications: staple 4-11; also: earlier-eluting staple isomer
notes: stapled peptide

molecular target: T1, full-length beta-Catenin (Uniprot ID …); experiment: AlphaScreen competition: full-length beta-catenin + biotin-TCF4(10-53) probe, peptide titrated
Method: (§1) Equal volume of the titrated peptide was added to the plate and incubated for 15 minutes at 20° C. Then 4 uL of donor and 4 uL acceptor beads at 10 ug/mL were added to the plate, for a 16 uL reaction pool and protected from light for 60 minutes at 20° C. prior to read. Reads were performed on a CLARIOstar plate reader (BMG Labtech) in duplicate, and data were fitted to a 1:1 binding model with hill slope using an in-house script. All provided concentrations are final concentrations.

EC50 [µM]	Binder
4.91	B1
2.83	B2
3.69	B3
3.47	B4
3.69	B5
3.47	B6
2.83	B7
4.91	B8

molecular target: T2, full-length beta-Catenin (Uniprot ID …); experiment: AlphaScreen competition; full-length beta-catenin with biotin-TCF4(10-53) probe as competitor
Method: as §1

EC50 [µM]	Binder
5.35	B9
3.24	B10
≥ 10	B11
2.17	B12
3.61	B13
≥ 10	B14
6.2	B15
1.22	B16
5.5	B17
≥ 10	B18
3.3	B19
5.64	B20
1.23	B21
≥ 10	B22
1.41	B23
≥ 10	B24
1.79	B25
1.94	B26
4.18	B27
7.37	B28
9.75	B29
4.06	B30
